Laboratory results as given in publication doi:10.1101/2025.11.15.688623.

Key:
[1] = molecular target: AccA3 (biotin carboxylase subunit with C-terminal BCCP domain) (Mycobacterium smegmatis (endogenous in M. smegmatis)); assay: cryo-EM structure
[2] = molecular target: AccE5 (ε-subunit) (Mycobacterium smegmatis (endogenous in M. smegmatis)); assay: cryo-EM structure

Substance | stoichiometry N [1] | stoichiometry N [2]
AccA3 (biotin carboxylase subunit with C-terminal BCCP domain) (enzyme) | 4 | –
AccE5 (ε-subunit) (natural protein) | – | 2
